Our source for the EC50 values is US20220195015A1 (published 2022).

The chains are these.
B1: C035 (antibody, V domains shown)
VH: EVQLVESGGGLVQPGGSLRLSCAASGFIFSSYWMTWVRQAPGKGLEWVASIKYNGNERNYVDSVKGRFTISRDNARNSLFLQLNNLGAEDTAVYYCARQPESTIWYYFDYWGQGTLVTVSS
VL: SYELTQPPSVSVSPGQTARVTCSGHALPDQYTYWYQQRPGRAPVLVIYVNNQRPSGIPDRFSATTSGTTVTLTISGVQAEDEADYYCQSADSSGSYVVFGGGTKLTVL
B2: C522 (antibody, V domains shown)
VH: EVQLVESGGGLIQPGGSLRLSCAASEFIVSRNYMSWVRQAPGKGLEWVSVIYSGGSTFYADSVKGRFTISRDESKNTLYLQMNSLRAEDTAIYYCARDRGGGILDYWGQGTLVTVS
VL: DIQMTQSPSSLSASVGDRVTITCQASQDINIFLNWYQQKPGKAPKLLIYDASSLETGVPSRFSGSGSGTDFTFTISSLQPEDFATYYCQQYGNLPKYTFGQGTKLEIK
B3: C521 (antibody, V domains shown)
VH: EVQLVESGGGLVRPGGSLTLSCVASGFTVGSNFMSWVRQAPGKGLEWVSLIYNSGGTHYADSVKGRFTISRDRSKNTLYLQMNSLRAEDTAIYYCANHGYYYYMDVWGKGTTVTVS
VL: QSALTQPASVSGSPGQSITISCTGTGSDIGAYNYVSWHQHHPGKAPKLIIYDVSNRPSGVSNRFSGSKSGNTASLTISGLQAEDEADYYCTSYTNTTTPWVFGGGTKVTVL
B4: C091 (antibody, V domains shown)
VH: QVQLVQSGAEVKKPGSSVKVSCKASGGTFSSYTISWVRQAPGQGLEWMGRIIPILGIANYAQKFQGRVTITADKSTSTAYMELSSLRSEDTAVYYCARDSGYSGYGSTYYMDVWGKGTTVTVSS
VL: QSVLTQPPSVSGAPGQRVTISCTGSSSNIGAGYDVHWYQQLPGTAPKLLIYGNSNRPSGVPDRFSGSKSGTSASLAITGLQAEDEADYYCQSYDSSLSGSVFGTVTKVTVL
B5: C092 (antibody, V domains shown)
VH: QVQLVQSGAEVKKPGSSVKVSCKASGGSFTNHFISWVRQAPGQGLEWMGRIIPILGTANYAQNFQGRVMMTADKSTSTAYMELSSLRSEDTAVYYCARDSGYSGYGSTYYMDVWGKGTTVTVSS
VL: QSVLTQPPSVSGAPGQRVTISCTGSNSNIGAGYDVHWYQQLPGAAPKLLIYGNNNRPSGVPDRFSGSKSDTSASLAITGLQVEDEADYYCQSYDSSLSDSVFGSGTKVTVL
B6: C059 (antibody, V domains shown)
VH: QVQLVQSGAEVKKPGASIKVSCKASGYTFTDYSMHWVRQAPGQGLEWMGWINPNSGGTKYAQKFQGWVTMTRDMSITTVYMELTRLRSDATAVFYCARGPLFHKLVYDSWTGYHDGFDIWGQGTMVTVSS
VL: QSALTQPASVSGSPGQSITISCTGTSSDVGGYNYVSWYQHYPGKAPKLMIYEVTHRPSGVSNRFSGSKSGNTASLTISGLQAEDEADYYCSSSTNSSTWVFGGGTKMTVL
B7: C066 (antibody, V domains shown)
VH: EVQLVESGGGLIQPGGSLRLSCAASGLLVSRNYMTWVRQAPGKGLEWVSVIYSGGSTFYADSVRGRFTISRDNSKNTLYLQMDSLRAEDTAVYYCARDVGDYYGMDVWGQGTTVTVSS
VL: DIQLTQSPAFLSASVGDRVTITCRASQGMSNYLAWYQQKPGKAPNLLIYTASTLQSGVPSRFSGSGSGTEFTLTISSLQPEDFATYYCQLLNSYPQLTFGGGTKVEIK
B8: C055 (antibody, V domains shown)
VH: EVQLVESGGGLVQPGGSLRLSCAASGFSVSTKYMTWVRQAPGKGLEWVSVLYSGRTDYYADSVKGRFTISRDSSKNILYLQMSSLRVEDTGFYYCARDSSEVRDHPGHPGRSVGAFDIWSQGTMVTVSS
VL: QSALTQPASVSGSPGQSIAISCTGTSNDVGSYTLVSWYQQYPGKAPKLLIFEDSQRSSGISNRFSGSKSGNTASLTISGLRGEDEADYYCCSYAGSHTFVFGGGTKVTVL
B9: C067 (antibody, V domains shown)
VH: VQLVESGGGVVQPGRSLRLSCAASGFSFRIFGMNWVRQAPGKGLDWVAGISHDGSDKYFADSVKGRFTISRDNSKNTLYLQMNSLRADDTAVYYCARDMEVDYYDRSGHYHVFHAFDIWGQGTMVTVSS
VL: DIVMTQSPDSLAVSLGARATINCKSSQSILYSSDNKSSLAWYQQKPGHPPKLLIYWASTRESGVPDRFSGSESGTDFTLTISNLQGEDVAVYYCQQYYSIPRSFGQGTKLEIK
B10: C065 (antibody, V domains shown)
VH: QVQLQESGPGLVKPSQTLSLTCTVSGGSISSSNYYWSWIRQHPGKGLEWIGYIDYSGGTYYNPSLKSRVTISVDTSKNQFSLKLSSVTAADTAVYYCARVSTTVTTYLVGGFDIWGQGTMVTVSS
VL: IRMTQSPSSLSASVGDRVTITCQASQDITNYLNWYQQKPGKAPKLLLYDASNLETGVPSRFSGSGSGTDFTFTISSLQPEDIATYYCQQYDNLPWTFGQGTKVEIK
B11: C062 (antibody, V domains shown)
VH: EVQLVESGGGLVKPGGSLRLTCAASGFTFSTYSMNWVRQAPGKGLEWVSSISSSSSYIYYADSVKGRFTISRDNAKNSLYLQMNSLRAEDTAVYYCARERGYYGGKTPPFLGGQGTLVTVSS
VL: NFMLTQPHSVSESPGKTVTISCTGSSGSIASNYVQWYQQRPGSAPTTVIYEDNQRPSGVPDRFSGSIDSSSNSASLTISGLKTEDEADYYCQSYDSSNYWVFGGGTKLTVL
B12: C064 (antibody, V domains shown)
VH: EVQLLESGGDLVQPGGSLRLSCAASGFTFSNYAMSWVRQAPGKGLEWVSAISGSGGNTYYADSVKGRFTISRDNSKNTLYLQMNSLRAEDTAVYYCAKAVHYGGNSDRRFSEPSAPFDYWGQGTLVTVSS
VL: QSALTQPASVSGSPGQSITISCTGTSSDVGSYNLVSWYQQHPGKAPKLMIYEGSKRPSGVSNRFSGSKSGNTASLTISGLQAEDEADYYCCSYAGSSTPYVFGTGTKVTVL
B13: C057 (antibody, V domains shown)
VH: QVQLVQSGAEVKRPGASVKLSCKASGYIFTDYSIHWVRQAPGQGLEWMGWVNPNSGGGNSAQKFMDWVTMARDTSITTVYMELSRLRSDDTAVYYCARGPLFHKLVYDSWSGYHDGFDIWGQGTMVTVSS
VL: QSALTQPASVSGSPGQSITISCTGTSSDVGAYKFVSWYQQHPGKAPQLIIYEVSNRPSGVSNRFSGSKSGNTASLTISGLQAEDEADYYCSSYTNASTWVFGGGTELTVL
B14: C058 (antibody, V domains shown)
VH: QVQLVQSGAEVKKPGASVKVSCKASGYIFTDYSMHWVRQAPGQGLEWIGWVNPNSGGTNYAQKFQGWVTMARDTSITTVYMELSRLKSDDTAVYFCARGPLFHRLVYDFWSGYHDGFDMWGQGTMVTVSS
VL: QSALTQPASVSGSPGQSITISCTGTSSDVGGYKFVSWYQQHPGKAPKLMIYEVSNRPSGVSNRFSGSKSGNTASLTISGLQAEDEADYYCNSYTSSSTWVFGGGTKLTVL
B15: C063 (antibody, V domains shown)
VH: EVQLVQSGAEVKKPGDSLKISCKASGYSFTRYWIGWVRQMPGKGLDWMGIIYPGDSDTRYSSSFQGQVTISADKSISTAYLQWSSLKASDTSLYYCVRRASSTNFEFWGQGTLVTVSS
VL: SYELTQPPSVSVAPGQTATITCGGNNIGSKTVHWYQQKPGQAPVVVVYDDSDRPSGIPERFSGSKSGSTATLTITRVEAGDEADYYCQVWDSTSDHYVFGTGTKVAVI
B16: C050 (antibody, V domains shown)
VH: EVQLVESGGGLFQPGGSLRLSCAASGFSVRNNYVSWVRQAPGKGLEWVSVIYSGGTTYYADSVKGRFTISRDISENTLYLQMNSLRAEDTAVYYCAREGDVEGLHDFWSGYSRDRYYFDYWGQGTLVTVSS
VL: QSALTQPASVSGSPGQSIIISCTGTSGDIGGYNYVSWYQQHPGKAPKLMIYDVSFRPSGVSNRFSGSKSDNTASLTISGLQAEDEADYYCSSFTGNNTRVFGTGTKVTVL
B17: C053 (antibody, V domains shown)
VH: EVQLVESGGGLIQPGGSLRLSCAASGFIVSNNYMSWVRQAPGKGLDWVSVIYSGGTTYYADSVKGRFTISRDNSKNTLYLQMNSLRAEDTAVYYCAREGDVEGYHDSWSGYSRDRYYFDYWGQGTLVTVSS
VL: QSALTQPASVSGSPGQSITISCTGSSSDVGGYNFVSWYQQHPGRAPKLMIYDVSNRPSGVSNRFSGSKSGNTASLTISGLQVEDEADYYCSSYTNNNTRVFGTGTKVTVL
B18: C052 (antibody, V domains shown)
VH: EVQLVESGGGLIRPGGSLRLSCAASGFSVSNNYMSWVRQAPGKGLEWVSVIYSGGTTYYADSVKGRFNISRDNSKNTVYLQMNSLRAEDTAVYYCAREGDVEGYYDFWSGYSRDRYYFDYWGQGALVTVSS
VL: QSALTQPASVSGSPGQSITISCTGTSSDVGGYNYVSWYQQHPGKAPKLMIYDVSNRPSGVSNRFSGSKSGNTASLTISGLQAEDEADYYCNSYTSNNTRVFGTGTKVTVL
B19: C054 (antibody, V domains shown)
VH: EVQLVESGGGLIQPGGSLRLSCAASGFTVSNNYMSWVRQAPGKGLEWVSVIYSGGSTYDADSVKGRFTISRDNSKNTLYLQMNSLSAEDTAVYYCAREGDVEGYYDFWSGYSRDRYYFDYWGQGTLVTVSS
VL: QSALTQPASVSGSPGQSITISCTGTSSDVGGYNYVSWYQQHPGKAPKLMIYDVSNRPSGVSNRFSGSKSGNTASLTISGLQAEDEADYYCSSYTSSSARVFGTGTKVTVL
B20: C060 (antibody, V domains shown)
VH: EVQLVESGGGLVQPGGSQRLSCAASGFTVSSNYMSWIRQAPGKGLEWVSVIYSGGSAYYVDSVKGRFTISRDNSKNTLYLQMNSLRPEDTAVYYCARIANYMDVWGKGTTVTVSS
VL: EIVMTQSPATLSVSPGERATLSCRASQSVSSHLAWYQQKPGQAPRLLIYGASTRATGIPTRFSGSGSGTEFTLTISSLQSEDFAVYYCQQYNNWPPLTFGGGTKVEIK
B21: C051 (antibody, V domains shown)
VH: EVQLVESGGGLIQAGGSLRLSCAASGFGVRNNYMSWVRQAPGKGLEWVSVIYSGGTTYYADSVKGRFTISRDNSKNTVFLQMNSLRAEDTAVYYCAREGDVEGFSDLWSGYSRDRYYFDYWGQGTLVTVSS
VL: QSALTQPASVSGSPGQSITFSCTGTSSDVGGYNYVSWYQQYPGKAPKLLIYDVTNRPSGVSDRFSGSKSGNTASLTISGLQAEDEADYYCSSFTSSNTRVFGTGTKVTVL

In the first experiment the target is SARS-CoV-2 receptor binding domain (RBD), wild type (SARS-CoV-2, UniProt P0DTC2 319-539). Kind of experiment: ELISA, RBD protein coated, mAb titrated. For orientation: In an ELISA, binding on a coated surface is turned into a signal by an enzyme label.
Regarding B1, the EC50 – broadly, the midpoint of the concentration-response curve – was 15.2 ng/mL.

B2 displayed an EC50 of 0.93 ng/mL.

As for B3, the EC50 was found to be 6.9 ng/mL.

As to B4, the EC50 came to 89.5 ng/mL.

In turn, B5 returned an EC50 of 7.07 ng/mL.

A further experiment addresses SARS-CoV-2 spike protein receptor binding domain (RBD) (SARS-CoV-2, UniProt P0DTC2 319-539). Kind of experiment: ELISA on coated RBD protein.
The molecule B6 showed an EC50 of 1.88 ng/mL.

B7 registered an EC50 of 4.2 ng/mL.

B8 yielded an EC50 of 1.25 ng/mL.

The molecule B9 displayed an EC50 of 6.98 ng/mL.

B10 gave an EC50 of 29.1 ng/mL.

In turn, B11 yielded an EC50 of 4.69 ng/mL.

With B12, the EC50 was 363 ng/mL.

For B13, a half-maximal effect (EC50) was put at 2.31 ng/mL.

As to B14, the EC50 amounted to 2.28 ng/mL.

B15 yielded an EC50 of 414 ng/mL.

As for B16, the midpoint of the response, the EC50, lay at 1.93 ng/mL.

The molecule B17 registered an EC50 of 1.53 ng/mL.

Consider B18, for which a half-maximal effect (EC50) was put at 1.23 ng/mL.

As to B19, the response was half-maximal at 1.58 ng/mL (EC50).

Regarding B20, the EC50 is 43.5 ng/mL.

In turn, B21 returned an EC50 of 1.65 ng/mL.
